T1: FHHDbf2-H6Mob1TM9 (Saccharomyces cerevisiae, UniProt P22204+P40484)
T1 construct: made in house; host or cells: Hi5 insect cells (baculovirus)
T1 sequence (P22204 1-572): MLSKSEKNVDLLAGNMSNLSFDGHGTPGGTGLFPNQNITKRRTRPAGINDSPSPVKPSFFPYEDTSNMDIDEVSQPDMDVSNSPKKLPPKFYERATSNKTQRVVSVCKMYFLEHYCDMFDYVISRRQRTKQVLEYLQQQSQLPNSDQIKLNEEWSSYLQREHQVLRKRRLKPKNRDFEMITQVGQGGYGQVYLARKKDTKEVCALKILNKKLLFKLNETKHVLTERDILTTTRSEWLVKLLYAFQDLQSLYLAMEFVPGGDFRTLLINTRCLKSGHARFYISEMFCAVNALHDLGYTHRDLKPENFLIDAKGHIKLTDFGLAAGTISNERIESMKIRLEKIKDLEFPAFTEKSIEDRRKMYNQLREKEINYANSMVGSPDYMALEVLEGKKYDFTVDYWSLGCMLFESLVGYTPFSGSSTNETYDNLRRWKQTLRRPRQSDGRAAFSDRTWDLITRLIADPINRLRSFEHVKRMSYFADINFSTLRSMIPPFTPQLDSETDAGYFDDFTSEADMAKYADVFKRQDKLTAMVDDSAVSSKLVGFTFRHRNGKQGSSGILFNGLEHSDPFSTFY
T1 sequence (P40484 1-314 partner): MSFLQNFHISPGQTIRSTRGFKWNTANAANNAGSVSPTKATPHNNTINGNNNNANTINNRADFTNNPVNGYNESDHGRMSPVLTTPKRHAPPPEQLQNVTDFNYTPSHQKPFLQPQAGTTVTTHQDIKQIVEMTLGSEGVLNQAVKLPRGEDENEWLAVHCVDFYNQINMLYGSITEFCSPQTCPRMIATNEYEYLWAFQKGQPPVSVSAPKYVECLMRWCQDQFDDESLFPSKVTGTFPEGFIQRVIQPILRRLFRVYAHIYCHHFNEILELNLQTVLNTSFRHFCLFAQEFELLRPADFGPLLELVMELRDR

B1: YDR299W: GST fusion yeast protein on proteome chip (protein, UniProt Q06631 1-534, looked up)
Protein BFR2: MEKSLADQISDIAIKPVNKDFDIEDEENASLFQHNEKNGESDLSDYGNSNTEETKKAHYLEVEKSKLRAEKGLELNDPKYTGVKGSRQALYEEVSENEDEEEEEEEEEEKEEDALSFRTDSEDEEVEIDEEESDADGGETEEAQQKRHALSKLIQQETKQAINKLSQSVQRDASKGYSILQQTKLFDNIIDLRIKLQKAVIAANKLPLTTESWEEAKMDDSEETKRLLKENEKLFNNLFNRLINFRIKFQLGDHITQNEEVAKHKLSKKRSLKELYQETNSLDSELKEYRTAVLNKWSTKVSSASGNAALSSNKFKAINLPADVQVENQLSDMSRLMKRTKLNRRNITPLYFQKDCANGRLPELISPVVKDSVDDNENSDDGLDIPKNYDPRRKDNNAIDITENPYVFDDEDFYRVLLNDLIDKKISNAHNSESAAITITSTNARSNNKLKKNIDTKASKGRKLNYSVQDPIANYEAPITSGYKWSDDQIDEFFAGLLGQRVNFNENEDEEQHARIENDEELEAVKNDDIQIFG
modifications: GST tag
notes: GST fusion yeast protein on proteome chip
B2: YGL105W: GST fusion yeast protein on proteome chip (protein, UniProt P46672 1-376, looked up)
tRNA-aminoacylation cofactor …: MSDLVTKFESLIISKYPVSFTKEQSAQAAQWESVLKSGQIQPHLDQLNLVLRDNTFIVSTLYPTSTDVHVFEVALPLIKDLVASSKDVKSTYTTYRHILRWIDYMQNLLEVSSTDKLEINHDLDLPHEVIEKKKKAPAGGAADAAAKADEDVSKKAKKQDHPRGKPDEETLKKLREEAKAKKAAKKAANAKQQQEQQNKAPEKPKPSAIDFRVGFIQKAIKHPDADSLYVSTIDVGDEEGPRTVCSGLVKHFPLDAMQERYVVVVCNLKPVNMRGIKSTAMVLCGSNDDKVEFVEPPKDSKAGDKVFFEGFGDEAPMKQLNPKKKIWEHLQPHFTTNDGLEVIFKDEEEKDHPVRKLTNAKGESFKVASIANAQVR
modifications: GST fusion
notes: as for B1
B3: YOL104C: GST fusion yeast protein on proteome chip (protein, UniProt Q12366 1-352, looked up)
Non-disjunction protein 1: MSKDNRLASILLQPVASSSGNCTEFHDSKLHTLQEELNFLPLEGVASNVCPPMFRGHKNYVFVLYCLNQVDLVTNLQDSTKRYYPLQIFKDCQLSSLVQKDFSHYFQLSRQKEGEDRNDSDTTLVNVVNSGVSRHRSQLLKMCIIPRICSFDKSNSKTYKLIQEYVNRFETVLTKFGPEKDFTKVYANWSKLIESFNELILHDLLVKWQQWSELTQPNATVHQNIPNVLRELVIKLTQRYFTFQPSYSCSIDEFTTILLNKNALSLLDVFRKPRKYKLNFGLWLDCQNGILIFTNGIVQMADEITSERVKSFVRPAHLLVLEDHSNDEAVKKLMFFTFSAILQCFTDEILNC
modifications: GST tag
notes: as for B1
B4: YIL010W: GST fusion yeast protein on proteome chip (protein, UniProt P40553 1-215, looked up)
Peroxiredoxin DOT5: MGEALRRSTRIAISKRMLEEEESKLAPISTPEVPKKKIKTGPKHNANQAVVQEANRSSDVNELEIGDPIPDLSLLNEDNDSISLKKITENNRVVVFFVYPRASTPGCTRQACGFRDNYQELKKYAAVFGLSADSVTSQKKFQSKQNLPYHLLSDPKREFIGLLGAKKTPLSGSIRSHFIFVDGKLKFKRVKISPEVSVNDAKKEVLEVAEKFKEE
modifications: GST tag
notes: as for B1
B5: YPL211W: GST fusion yeast protein on proteome chip (protein, UniProt Q08962 1-181, looked up)
60S ribosome subunit …: MRQLTEEETKVVFEKLAGYIGRNISFLVDNKELPHVFRLQKDRVYYVPDHVAKLATSVARPNLMSLGICLGKFTKTGKFRLHITSLTVLAKHAKYKIWIKPNGEMPFLYGNHVLKAHVGKMSDDIPEHAGVIVFAMNDVPLGFGVSAKSTSESRNMQPTGIVAFRQADIGEYLRDEDTLFT
modifications: GST tag
notes: as for B1
B6: YML035C: GST fusion yeast protein on proteome chip (protein, UniProt P15274 1-810, looked up)
AMP deaminase: MDNQATQRLNDLSLEPAPSHDEQDGSGLVIDIDQRKIGDEQAGVVVDDETPPLEQQDSHESLAADSRNANFSYHENQQLLENGTKQLALDEHDSHSAILEQPSHSTNCSSSNIAAMNKGHDSADHASQNSGGKPRTLSASAQHILPETLKSFAGAPVVNKQVRTSASYKMGMLADDASQQFLDDPSSELIDLYSKVAECRNLRAKYQTISVQNDDQNPKNKPGWVVYPPPPKPSYNSDTKTVVPVTNKPDAEVFDFTKCEIPGEDPDWEFTLNDDDSYVVHRSGKTDELIAQIPTLRDYYLDLEKMISISSDGPAKSFAYRRLQYLEARWNLYYLLNEYQETSVSKRNPHRDFYNVRKVDTHVHHSACMNQKHLLRFIKHKLRHSKDEKVIFRDGKLLTLDEVFRSLHLTGYDLSIDTLDMHAHKDTFHRFDKFNLKYNPIGESRLREIFLKTNNYIKGTYLADITKQVIFDLENSKYQNCEYRISVYGRSLDEWDKLASWVIDNKVISHNVRWLVQIPRLYDIYKKTGIVQSFQDICKNLFQPLFEVTKNPQSHPKLHVFLQRVIGFDSVDDESKVDRRFHRKYPKPSLWEAPQNPPYSYYLYYLYSNVASLNQWRAKRGFNTLVLRPHCGEAGDPEHLVSAYLLAHGISHGILLRKVPFVQYLYYLDQVGIAMSPLSNNALFLTYDKNPFPRYFKRGLNVSLSTDDPLQFSYTREPLIEEYSVAAQIYKLSNVDMCELARNSVLQSGWEAQIKKHWIGKDFDKSGVEGNDVVRTNVPDIRINYRYDTLSTELELVNHFANFKRTIEEK
modifications: GST tag
notes: as for B1
B7: YKL146W: GST fusion yeast protein on proteome chip (protein, UniProt P36062 1-692, looked up)
Vacuolar amino acid …: MNGKEVSSGSGRTQSNNNKKNNNGGSTGISHASGSPLTDGNGGNSNGNSRSRSRSRKSSGTTGGLLKKPPLLVNNEAVHASVPDASHTSCNNGTLEVSINNPEPHVVDAVARHLIRNPSNSLQLQGGDITRDLYKWTNDHPSSPSQYQYPSQPALSTSIPSQAPSFSNRKRSMSFSAASIASSSHLNNNSEANGNPLAAIGLAPAPMTHEEIRAPGGFRRSFIIQKRRKHNVDAPIPNFFTRNFIEFLTLYGHFAGEDLSEEEEEEEETEEEPEEEALETESTQLVSREHGRHPHKSSTVKAVLLLLKSFVGTGVLFLPKAFHNGGWGFSALCLLSCALISYGCFVSLITTKDKVGVDGYGDMGRILYGPKMKFAILSSIALSQIGFSAAYTVFTATNLQVFSENFFHLKPGSISLATYIFAQVLIFVPLSLTRNIAKLSGTALIADLFILLGLVYVYVYSIYYIAVNGVASDTMLMFNKADWSLFIGTAIFTFEGIGLLIPIQESMKHPKHFRPSLSAVMCIVAVIFISCGLLCYAAFGSDVKTVVLLNFPQDTSYTLTVQLLYALAILLSTPLQLFPAIRILENWTFPSNASGKYNPKVKWLKNYFRCAIVVLTSILAWVGANDLDKFVSLVGSFACIPLIYIYPPLLHYKASILSGTSRARLLLDLIVIVFGVAVMAYTSWQTIKMWSQ
modifications: GST tag
notes: as for B1

target: T1, FHHDbf2-H6Mob1TM9; experiment: Yeast proteome chip assay; assay type: biochemical; conditions: Table 3; GST fusion proteins on proteome chip, [γ-33P]ATP, chips in duplicate, computer analysis
Protocol: The relatively low sequence complexity of the Dbf2 phosphorylation motif diminished the power of using genome-wide bioinformatics screens to identify putative substrates. Accordingly, we carried out a proteome array screen to identify putative yeast substrates. […] After taking into account the proteins phosphorylated in the negative controls, 67 proteins were determined to be putative Dbf2-Mob1 substrates (Table 3).
Yeast proteome microarrays were prepared as previously described. Overexpressed GST-tagged yeast proteins were purified from ~4,400 yeast strains and spotted on slides. To determine the optimal amount of kinase to use for probing proteome chips, we performed trial assays as described (J. Ptacek et al., submitted). […] The full proteome array was probed with 4 μl ^FHHDbf2-^H6Mob1^TM9 in 200 μl of DKB supplemented with [γ-^33P]ATP. As a control, ^FHHDbf2(N305A)-^H6Mob1^TM9 was used to probe the proteome array. […] To control for autophosphorylated proteins, the proteome array was probed with 200 μl of DKB supplemented with [γ-^33P]ATP. Proteome chips were assayed in duplicate in each case. Data analysis was performed as described (J. Ptacek et al., submitted). Briefly, signals were analyzed by a computer algorithm designed to normalize background and identify signals as positive if 3 of 4 spots (each protein is spotted twice on each slide and each kinase or control was tested on 2 slides) were 2 standard deviations above background and the fourth spot was 1.5 standard deviations above background.

Compared with B1, B2 is lower in “Slide Signal (after normalization)” value: 0.47 for the first, 0.1332 for the second.

First: B3
Second: B4
The “Slide Signal (after normalization)” value of the first is higher: 0.3611 for the first, 0.2606 for the second.

Compared with B5, B6 is lower in “Slide Signal (after normalization)” value: 0.4521 for the first, 0.1384 for the second.

B7 was tested, and the “Slide Signal (after normalization)” value was 0.3592.

— publication PMC1277818, “Substrate specificity analysis of protein kinase complex Dbf2-Mob1 by peptide library and proteome array screening” (BMC Biochemistry, 2005)
